US11795460B2, “Compositions and methods for TTR gene editing and treating ATTR amyloidosis” (Intellia Therapeutics, Inc., priority 2017, dated 2023)
Strand notation (5' to 3'): a small letter for the sugar, then the base; units joined by * are phosphorothioate-linked, units joined directly phosphodiester-linked; [ ] holds rarer units or linkages, { } end groups; capitals alone tell only the bases. m = 2'-O-methyl; r = 2'-OH (RNA)

B1: G000490: TTR sgRNA modified sequence, Human, SEQ ID No. 97; guide sequence of CR003366 (nucleic acid)
guide: mA*mA*mA*rUrArGrArCrArCrCrArArArUrCrUrUrArCrGrUrUrUrUrArGrAmGmCmUmAmGmAmAmAmUmAmGmCrArArGrUrUrArArArArUrArArGrGrCrUrArGrUrCrCrGrUrUrArUrCrAmAmCmUmUmGmAmAmAmAmAmGmUmGmGmCmAmCmCmGmAmGmUmCmGmGmUmGmCmU*mU*mU*mU
B2: G000500: TTR sgRNA modified sequence, Human, SEQ ID No. 107; guide sequence of CR003337 (nucleic acid)
guide: mC*mC*mA*rGrUrCrCrArGrCrArArGrGrCrArGrArGrGrGrUrUrUrUrArGrAmGmCmUmAmGmAmAmAmUmAmGmCrArArGrUrUrArArArArUrArArGrGrCrUrArGrUrCrCrGrUrUrArUrCrAmAmCmUmUmGmAmAmAmAmAmGmUmGmGmCmAmCmCmGmAmGmUmCmGmGmUmGmCmU*mU*mU*mU
B3: G000493: TTR sgRNA modified sequence, Human, SEQ ID No. 100; guide sequence of CR003368 (nucleic acid)
guide: mA*mA*mG*rUrGrCrCrUrUrCrCrArGrUrArArGrArUrUrGrUrUrUrUrArGrAmGmCmUmAmGmAmAmAmUmAmGmCrArArGrUrUrArArArArUrArArGrGrCrUrArGrUrCrCrGrUrUrArUrCrAmAmCmUmUmGmAmAmAmAmAmGmUmGmGmCmAmCmCmGmAmGmUmCmGmGmUmGmCmU*mU*mU*mU

How the values were obtained:
TTR [1] = experiment: TTR editing in primary cyno hepatocytes electroporated with Spy Cas9 protein and sgRNAs (Tables 14, 15); assay type: cell-based, cynomolgus monkey; conditions: Table 14; primary cyno hepatocytes electroporated with Spy Cas9 protein (RNP) and sgRNAs
How it was run: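 Spy Cas9 RNPs with boiled sgRNAs electroporated (Lonza P3 buffer, program EX-147) into primary cynomolgus hepatocytes; harvest at 24, 48 or 72 h. TTR target site PCR-amplified and sequenced on Illumina MiSeq, reads aligned to mf5; percent editing is reads with indels or substitutions over total reads.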

TTR [2] = experiment: EC50 and maximum editing in primary human hepatocytes treated with LNP formulated U-depleted Spy Cas9 mRNA and sgRNAs (Tables 19, 21); assay type: cell-based; set-up: key: % of sequence reads with indels or substitutions over total reads; conditions: Table 19, LNP with U-depleted Spy Cas9 mRNA and human specific sgRNAs, dose response
How it was run: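 Primary human hepatocytes, plated 24 h, received LNPs carrying Cas9 mRNA plus TTR sgRNA, preincubated 5 min in media with 6% cyno serum, in an 8-point 3-fold series starting at 300 ng mRNA; lysed 72 h later; editing determined as indel/substitution read fraction by amplicon MiSeq sequencing.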

[3] = system: off-target integration sites; experiment: Off-target oligo insertion based assay in primary human hepatocytes (Table 30); assay type: cell-based; conditions: TTR sgRNAs in PHH, 100 ng Cas9 mRNA, 25 nM sgRNA, 12.5 nM donor oligo
Method: Off-target analysis of sgRNAs targeting TTR was performed in primary human hepatocytes (PHH) as described in Example 5, with the following modifications. PHH were plated at a density of 33,000 cells per well on collagen-coated 96-well plates as described in Example 1. Twenty-four hours post plating, cells were washed with media and transfected using Lipofectamine RNAiMAX (ThermoFisher, Cat. 13778150) as described in Example 1. Cells were transfected with a lipoplex containing 100 ng Cas9 mRNA, immediately followed by the addition of another lipoplex containing 25 nM of the sgRNA and 12.5 nM of the donor oligo (0.3 μL/well). Cells were lysed 48 hours post-transfection and gDNA was extracted and analyzed as further described in Example 5. The data is graphically represented in FIG. 20.
Fewer sites were detected in PHH for every guide tested as compared to the HekCas9 cell line, with no unique sites detected in PHH alone.

Row | Molecule | Avg % Deletion (TTR [1]) [%] | Avg % Edit (TTR [1]) [%] | Avg % Insert (TTR [1]) [%] | Max Editing (TTR [2]) | # Sites in PHH [3]
1 | B1 | 7.27 | 61.67 | 54.47 | 94.16 | 0
2 | B2 | 2.63 | 45.20 | 42.60 | 88.70 | 12
3 | B3 | 2.10 | 50.13 | 48.07 | 63.95 | 1
